This note sets out measurements from patent US20260226192.

The data set concerns Engineered trastuzumab antibody design 18 [anti-Her2 ScFv-FC].
Chain of Engineered trastuzumab antibody design 18 [anti-Her2 ScFv-FC] (chain, as listed by the source, change not shown): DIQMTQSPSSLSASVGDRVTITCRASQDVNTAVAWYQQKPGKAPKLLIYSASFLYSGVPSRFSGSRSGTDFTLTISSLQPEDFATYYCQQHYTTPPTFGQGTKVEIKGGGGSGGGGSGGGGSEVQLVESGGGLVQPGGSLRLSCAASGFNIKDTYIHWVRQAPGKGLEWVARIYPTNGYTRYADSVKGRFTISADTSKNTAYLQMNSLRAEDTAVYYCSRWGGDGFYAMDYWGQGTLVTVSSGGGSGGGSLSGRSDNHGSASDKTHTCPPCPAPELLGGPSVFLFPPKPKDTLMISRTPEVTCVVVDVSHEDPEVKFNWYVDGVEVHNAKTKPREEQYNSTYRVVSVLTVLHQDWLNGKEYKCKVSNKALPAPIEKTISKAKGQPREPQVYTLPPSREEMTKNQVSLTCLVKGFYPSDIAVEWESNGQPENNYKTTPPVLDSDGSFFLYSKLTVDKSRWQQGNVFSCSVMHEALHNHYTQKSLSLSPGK

As to uPA protease, the “protease digestion with uPA (1:1 molar), SDS-PAGE” value was “uPA cleaved the antibody variants and generated F(ab) fragments in a similar manner as it did for the other designs”.
